Substitutions are numbered along the chain they refer to.
T1: human GIP receptor (human) (UniProt P48546)
T1 sequence (looked up): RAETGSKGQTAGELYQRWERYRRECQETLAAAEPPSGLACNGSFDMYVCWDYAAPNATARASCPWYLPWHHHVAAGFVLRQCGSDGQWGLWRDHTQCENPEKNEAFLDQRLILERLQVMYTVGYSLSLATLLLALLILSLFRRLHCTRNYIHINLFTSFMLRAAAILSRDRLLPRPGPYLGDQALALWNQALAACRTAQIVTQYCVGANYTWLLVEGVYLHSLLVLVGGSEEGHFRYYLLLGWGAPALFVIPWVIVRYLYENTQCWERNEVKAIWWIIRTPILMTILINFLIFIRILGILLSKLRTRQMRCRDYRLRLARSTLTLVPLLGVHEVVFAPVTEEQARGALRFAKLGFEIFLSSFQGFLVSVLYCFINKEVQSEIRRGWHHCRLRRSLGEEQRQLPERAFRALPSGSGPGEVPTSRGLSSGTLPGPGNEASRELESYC

B1: Example 523 (peptide)
chain: YXQGTXTSDXXIXLDXKAQXXFIEYLIEGGPSSGEPPPSGTGE
modifications: synthetic construct; SITE 2: note = 2-Aminoisobutyric Acid; SITE 6: note = alpha-methyl-2-fluoro-L-phenylalanine; SITE 10: note = 3-(4-Pyridyl)-L-alanine; SITE 11: note = alpha-methyl-L-serine; SITE 13: note = alpha-methyl-leucine; SITE 16: note = L-ornithine; SITE 17: note = Lysine is chemically mo
B2: Example 597 (peptide)
chain: B1 chain with Y25X, I27T, S39E, G42E
modifications: acylated Lys (γGlu)2-C18 diacid; non-natural residues; C-terminal amide; synthetic construct; SITE 2: note = 2-Aminoisobutyric Acid; SITE 6: note = alpha-methyl-2-fluoro-L-phenylalanine; SITE 10: note = 3-(4-Pyridyl)-L-alanine; SITE 11: note = alpha-methyl-L-serine; SITE 13: note = alpha-methyl-leucine; SITE 16: note = L-ornithine; SITE 17: note = Lysine is chemically mo
B3: Example 524 (peptide)
chain: B1 chain
modifications: not fully specified; C-terminal amide; synthetic construct; SITE 2: note = 2-Aminoisobutyric Acid; SITE 6: note = alpha-methyl-2-fluoro-L-phenylalanine; SITE 10: note = 3-(4-Pyridyl)-L-alanine; SITE 11: note = alpha-methyl-L-serine; SITE 13: note = alpha-methyl-leucine; SITE 16: note = L-ornithine; SITE 17: note = Lysine is chemically mo
B4: Example 527 (peptide)
chain: B1 chain with X21N, Y25X, I27Q, S39E
modifications: synthetic construct; SITE 2: note = 2-Aminoisobutyric Acid; SITE 6: note = alpha-methyl-2-fluoro-L-phenylalanine; SITE 10: note = 3-(4-Pyridyl)-L-alanine; SITE 11: note = alpha-methyl-L-serine; SITE 13: note = alpha-methyl-leucine; SITE 16: note = L-ornithine; SITE 17: note = Lysine is chemically mo
B5: Example 543 (peptide)
chain: B1 chain with Y25X, I27T
modifications: synthetic construct; SITE 2: note = 2-Aminoisobutyric Acid; SITE 6: note = alpha-methyl-2-fluoro-L-phenylalanine; SITE 10: note = 3-(4-Pyridyl)-L-alanine; SITE 11: note = alpha-methyl-L-serine; SITE 13: note = alpha-methyl-leucine; SITE 16: note = L-ornithine; SITE 17: note = Lysine is chemically mo
B6: Example 603 (peptide)
chain: B1 chain with X13L, S39E, T41S, G42E
modifications: non-natural residues, acylated Lys ((γGlu)2-C18 diacid), C-terminal amide; synthetic construct; SITE 2: note = 2-Aminoisobutyric Acid; SITE 6: note = alpha-methyl-2-fluoro-L-phenylalanine; SITE 10: note = 3-(4-Pyridyl)-L-alanine; SITE 11: note = alpha-methyl-L-serine; SITE 16: note = L-ornithine; SITE 17: note = Lysine is chemically modified through conjugation of the epsi
B7: Example 604 (peptide)
chain: B1 chain with X13L, S39E, T41A, G42E
modifications: non-natural residues; Lys acylated C18 diacid; C-terminal amide; synthetic construct; SITE 2: note = 2-Aminoisobutyric Acid; SITE 6: note = alpha-methyl-2-fluoro-L-phenylalanine; SITE 10: note = 3-(4-Pyridyl)-L-alanine; SITE 11: note = alpha-methyl-L-serine; SITE 16: note = L-ornithine; SITE 17: note = Lysine is chemically modified through conjugation of the epsi
B8: Example 545 (peptide)
chain: B1 chain with Y25X, I27A
modifications: synthetic construct; SITE 2: note = 2-Aminoisobutyric Acid; SITE 6: note = alpha-methyl-2-fluoro-L-phenylalanine; SITE 10: note = 3-(4-Pyridyl)-L-alanine; SITE 11: note = alpha-methyl-L-serine; SITE 13: note = alpha-methyl-leucine; SITE 16: note = L-ornithine; SITE 17: note = Lysine is chemically mo
B9: Example 529 (peptide)
chain: B1 chain with X21Q, Y25X, I27Q, S39E
modifications: synthetic construct; SITE 2: note = 2-Aminoisobutyric Acid; SITE 6: note = alpha-methyl-2-fluoro-L-phenylalanine; SITE 10: note = 3-(4-Pyridyl)-L-alanine; SITE 11: note = alpha-methyl-L-serine; SITE 13: note = alpha-methyl-leucine; SITE 16: note = L-ornithine; SITE 17: note = Lysine is chemically mo
B10: Example 54 (peptide)
chain: YXQGTFTSDFSKXLDKKAQXAFIEYLLEGGPSSGEPPPGEGX
modifications: synthetic construct; SITE 2: note = 2-Aminoisobutyric Acid; SITE 13: note = alpha-methyl-leucine; SITE 17: note = Lysine is chemically modified through conjugation of the epsilon-amino group of the Lysine side chain with (2-[2-(2-Amino-ethoxy)-ethoxy]-acetyl)-(gamma-Glu)-CO-(CH2) 18-CO2H; SITE 20: n
B11: Example 56 (peptide)
chain: B10 chain with E35A, G39S
modifications: synthetic construct; SITE 2: note = 2-Aminoisobutyric Acid; SITE 13: note = alpha-methyl-leucine; SITE 17: note = Lysine is chemically modified through conjugation of the epsilon-amino group of the Lysine side chain with (2-[2-(2-Amino-ethoxy)-ethoxy]-acetyl)-(gamma-Glu)-CO-(CH2) 16-CO2H; SITE 20: n
B12: Example 52 (peptide)
chain: YXQGTFTSDFSKXLDKKAQXAFIEYLLEGGPSSGAPPPXEG
modifications: synthetic construct; SITE 2: note = 2-Aminoisobutyric Acid; SITE 13: note = alpha-methyl-leucine; SITE 17: note = Lysine is chemically modified through conjugation of the epsilon-amino group of the Lysine side chain with (2-[2-(2-Amino-ethoxy)-ethoxy]-acetyl)-(gamma-Glu)-CO-(CH2) 18-CO2H; SITE 20: n
B13: Example 53 (peptide)
chain: B12 chain with E40G, G41E
modifications: synthetic construct; SITE 2: note = 2-Aminoisobutyric Acid; SITE 13: note = alpha-methyl-leucine; SITE 17: note = Lysine is chemically modified through conjugation of the epsilon-amino group of the Lysine side chain with (2-[2-(2-Amino-ethoxy)-ethoxy]-acetyl)-(gamma-Glu)-CO-(CH2) 18-CO2H; SITE 20: n

Target: hGLP-1R (Homo sapiens, UniProt P43220)
Assay: cell-based or functional assay

hGLP-1R, sequence (P43220 24-463): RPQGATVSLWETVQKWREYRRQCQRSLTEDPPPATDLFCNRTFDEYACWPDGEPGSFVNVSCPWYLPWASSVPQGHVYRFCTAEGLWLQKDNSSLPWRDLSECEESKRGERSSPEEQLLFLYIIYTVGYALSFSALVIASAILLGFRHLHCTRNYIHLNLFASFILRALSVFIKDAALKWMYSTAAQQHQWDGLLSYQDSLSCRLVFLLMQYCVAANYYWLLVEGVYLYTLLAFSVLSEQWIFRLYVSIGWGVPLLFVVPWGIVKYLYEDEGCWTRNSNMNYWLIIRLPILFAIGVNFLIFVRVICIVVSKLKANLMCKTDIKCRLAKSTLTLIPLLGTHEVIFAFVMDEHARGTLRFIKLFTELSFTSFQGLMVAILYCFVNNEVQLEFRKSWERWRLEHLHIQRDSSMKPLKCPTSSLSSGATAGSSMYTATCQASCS

| Binder | Relative cAMP EC50 [nM] | cAMP Rel EC50 (1% HSA) [nM] | cAMP Rel EC50 (in the presence of 1% HSA) [nM] | cAMP Rel EC50, nM (in the presence of 1% HSA) [nM] |
| --- | --- | --- | --- | --- |
| B1 | 0.482 | 27.1 | – | – |
| B2 | 0.6 | – | 36.4 | – |
| B3 | 0.487 | 32.7 | – | – |
| B4 | 0.446 | 26.8 | – | – |
| B5 | 0.41 | 32 | – | – |
| B6 | 0.688 | – | 49.5 | – |
| B7 | 0.705 | – | 51 | – |
| B8 | 0.602 | 40.2 | – | – |
| B9 | 0.467 | 24.5 | – | – |
| B10 | 3.95 | – | – | 1300 |
| B11 | 4.07 | – | – | 167 |
| B12 | 5.18 | – | – | 1250 |
| B13 | 3.31 | – | – | 1030 |

Target: human glucagon receptor (human) (UniProt P47871)
Assay: cell-based or functional assay

human glucagon receptor (human), sequence (P47871 26-477): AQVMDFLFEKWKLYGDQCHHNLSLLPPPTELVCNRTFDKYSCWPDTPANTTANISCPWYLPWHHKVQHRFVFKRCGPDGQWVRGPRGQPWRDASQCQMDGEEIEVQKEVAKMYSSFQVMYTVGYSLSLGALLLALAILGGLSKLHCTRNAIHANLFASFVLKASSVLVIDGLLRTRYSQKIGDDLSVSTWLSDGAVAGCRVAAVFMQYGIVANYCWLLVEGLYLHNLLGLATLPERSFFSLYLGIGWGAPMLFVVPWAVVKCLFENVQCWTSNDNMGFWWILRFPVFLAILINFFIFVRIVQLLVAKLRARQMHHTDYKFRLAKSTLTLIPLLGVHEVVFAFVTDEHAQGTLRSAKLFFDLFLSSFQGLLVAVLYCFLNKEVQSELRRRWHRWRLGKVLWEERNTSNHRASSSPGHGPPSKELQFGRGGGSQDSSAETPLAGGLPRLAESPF

| Binder | Relative cAMP EC50 [nM] | cAMP Rel EC50 (1% HSA) [nM] | cAMP Rel EC50 (in the presence of 1% HSA) [nM] | cAMP Rel EC50, nM (in the presence of 1% HSA) [nM] |
| --- | --- | --- | --- | --- |
| B1 | 3.79 | 234 | – | – |
| B2 | 5.2 | – | 329 | – |
| B3 | 5.11 | 464 | – | – |
| B4 | 6.99 | 580 | – | – |
| B5 | 4.56 | 300 | – | – |
| B6 | 5.43 | – | 419 | – |
| B7 | 5.5 | – | 427 | – |
| B8 | 2.71 | 180 | – | – |
| B9 | 6.59 | 398 | – | – |
| B10 | 3.77 | – | – | 1940 |
| B11 | 2.8 | – | – | 265 |
| B12 | 5.84 | – | – | 1740 |
| B13 | 4.19 | – | – | 1780 |

Target: T1, human GIP receptor (human)
Assay: cell-based or functional assay

| Binder | Relative cAMP EC50 [nM] | cAMP Rel EC50 (1% HSA) [nM] | cAMP Rel EC50 (in the presence of 1% HSA) [nM] | cAMP Rel EC50, nM (in the presence of 1% HSA) [nM] |
| --- | --- | --- | --- | --- |
| B1 | 0.021 | 0.869 | – | – |
| B2 | 0.0643 | – | 2.38 | – |
| B3 | 0.0266 | 1.46 | – | – |
| B4 | 0.0386 | 2.6 | – | – |
| B5 | 0.0319 | 1.88 | – | – |
| B6 | 0.102 | – | 4.99 | – |
| B7 | 0.161 | – | 4.84 | – |
| B8 | 0.0432 | 2.74 | – | – |
| B9 | 0.0273 | 1.39 | – | – |
| B10 | 0.502 | – | – | 168 |
| B11 | 0.315 | – | – | 30.3 |
| B12 | 0.449 | – | – | 111 |
| B13 | 0.518 | – | – | 113 |

From patent publication US20240270821A1, “GIP/GLP1/GCG TRI-RECEPTOR AGONISTS AND USES THEREOF” (priority 2023, published 2024)
